From the Immune Epitope Database (IEDB)

Assays:
HLA-A*11:01 = test: IEDB peptide-MHC binding, purified MHC/direct/fluorescence; filed as Kd, often an IC50 or EC50 that approximates it; ≥ and ≤ were set here for values at or beyond the usual limits of such assays
HLA-B*15:01 [1] = test: as above
HLA-B*15:09 [2] = test: as above
HLA-B*18:01 [3] = test: as above
HLA-B*07:02 [4] = test: as above
HLA-A*31:01 = test: as above
HLA-B*58:01 = test: as above
HLA-B*39:01 = test: as above
HLA-B*57:01 = test: as above
HLA-A*01:01 = test: as above
HLA-B*08:01 = test: as above
HLA-A*02:01 [5] = test: IEDB peptide-MHC binding, purified MHC/competitive/fluorescence; filed as Kd, often an IC50 or EC50 that approximates it; ≥ and ≤ were set here for values at or beyond the usual limits of such assays; conditions: source organism: Influenza A virus H3N2
HLA-A*68:02 [6] = test: as above; conditions: source organism: Influenza A virus H3N2
HLA-A*02:03 = test: as above; conditions: source organism: Influenza A virus H3N2
HLA-A*02:06 = test: as above
HLA-B*40:01 = test: IEDB peptide-MHC binding, purified MHC/direct/fluorescence; filed as Kd, often an IC50 or EC50 that approximates it; ≥ and ≤ were set here for values at or beyond the usual limits of such assays
HLA-B*48:01 = test: as above
HLA-B*27:05 [7] = test: as above
HLA-B*46:01 = test: as above
HLA-C*05:01 = test: as above; conditions: source organism: Bacillus anthracis str. A0389
HLA-B*08:02 = test: as above
HLA-B*15:17 [8] = test: as above
HLA-A*03:01 = test: as above
HLA-B*15:01 [9] = test: IEDB peptide-MHC binding, purified MHC/competitive/fluorescence; filed as Kd, often an IC50 or EC50 that approximates it; ≥ and ≤ were set here for values at or beyond the usual limits of such assays
HLA-B*15:09 [10] = test: as above; conditions: source organism: Bacillus anthracis str. A0389
HLA-A*26:01 [11] = test: as above; conditions: source organism: Bacillus anthracis str. A0389
HLA-B*35:01 [12] = test: IEDB peptide-MHC binding, purified MHC/competitive/radioactivity; filed as Kd, often an IC50 or EC50 that approximates it; ≥ and ≤ were set here for values at or beyond the usual limits of such assays; conditions: source organism: Dengue virus 1 Brazil/97-11/1997
HLA-B*07:02 [13] = test: IEDB peptide-MHC binding, purified MHC/competitive/radioactivity; ≥ and ≤ were set here for values at or beyond the usual limits of such assays; conditions: source organism: dengue virus type 1
HLA-A*02:01 [14] = test: IEDB peptide-MHC binding, purified MHC/direct/fluorescence; filed as Kd, often an IC50 or EC50 that approximates it; ≥ and ≤ were set here for values at or beyond the usual limits of such assays
HLA-A*68:02 [15] = test: as above
HLA-A*26:03 = test: IEDB peptide-MHC binding, purified MHC/competitive/fluorescence; filed as Kd, often an IC50 or EC50 that approximates it; ≥ and ≤ were set here for values at or beyond the usual limits of such assays; conditions: source organism: Orthomarburgvirus marburgense
HLA-B*40:02 = test: IEDB peptide-MHC binding, cellular MHC/competitive/fluorescence; ≥ and ≤ were set here for values at or beyond the usual limits of such assays; conditions: source organism: Homo sapiens
HLA-A*26:02 = test: IEDB peptide-MHC binding, purified MHC/direct/fluorescence; filed as Kd, often an IC50 or EC50 that approximates it; ≥ and ≤ were set here for values at or beyond the usual limits of such assays; conditions: source organism: Variola virus
HLA-A*26:01 [16] = test: as above; conditions: source organism: Variola virus
HLA-A*69:01 = test: as above; conditions: source organism: Cowpox virus
HLA-B*18:01 [17] = test: IEDB peptide-MHC binding, purified MHC/competitive/fluorescence; filed as Kd, often an IC50 or EC50 that approximates it; ≥ and ≤ were set here for values at or beyond the usual limits of such assays; conditions: source organism: Vaccinia virus Copenhagen
HLA-B*27:05 [18] = test: as above; conditions: source organism: Vaccinia virus Copenhagen
HLA-B*07:02 [19] = test: as above; conditions: source organism: Vaccinia virus Copenhagen
HLA-B*35:01 [20] = test: as above; conditions: source organism: Vaccinia virus Copenhagen
HLA-B*15:17 [21] = test: as above; conditions: source organism: Vaccinia virus Copenhagen
[22] = source organism: Influenza A virus (A/equine/New York/1/1999(H3N8))
[23] = source organism: Influenza A virus(A/swine/Shandong/fNY/2003(H9N2))
[24] = source organism: Bacillus anthracis
[25] = source organism: Bacillus anthracis str. A0193
[26] = source organism: Bacillus anthracis str. A0389
[27] = source organism: Marburg virus - Musoke, Kenya, 1980

With ELVRKTRFL the Kd (HLA-A*11:01; [22]) was ≥ 20 µM, the Kd (HLA-B*15:01 [1]; [22]) was ≥ 20 µM and the Kd (HLA-B*15:09 [2]; [23]) was ≥ 20 µM. The Kd (HLA-B*18:01 [3]; [22]) was ≥ 20 µM, the Kd (HLA-B*07:02 [4]; [22]) was ≥ 20 µM and the Kd (HLA-A*31:01; [22]) was ≥ 20 µM. The Kd (HLA-B*58:01; [22]) was ≥ 20 µM, the Kd (HLA-B*39:01; [23]) was ≥ 20 µM and the Kd (HLA-B*57:01; [22]) was ≥ 20 µM. For the same sequence, the Kd (HLA-A*01:01; [22]) was ≥ 20 µM, the Kd (HLA-B*08:01; [22]) was 1.62 µM and the Kd (HLA-A*02:01 [5]) was ≥ 20 µM. For the same sequence, the Kd (HLA-A*68:02 [6]) was 1.43 µM, the Kd (HLA-A*02:03) was ≥ 20 µM and the Kd (HLA-A*02:06; source organism: Influenza A virus H3N2) was 2.88 µM.

In the case of FTDNNELEF, the Kd (HLA-A*11:01; [24]) is reported as ≥ 20 µM, the Kd (HLA-B*40:01; [24]) is reported as ≥ 20 µM and the Kd (HLA-B*48:01; [24]) is reported as ≥ 20 µM. For the same sequence, the Kd (HLA-B*27:05 [7]; [24]) was ≥ 20 µM, the Kd (HLA-B*46:01; [24]) was ≥ 20 µM and the Kd (HLA-C*05:01) was ≤ 0.001 µM. The Kd (HLA-A*31:01; [24]) was ≥ 20 µM, the Kd (HLA-B*58:01; [24]) was 0.212 µM and the Kd (HLA-B*08:02; [25]) was ≥ 20 µM. For the same sequence, the Kd (HLA-B*39:01; [25]) was ≥ 20 µM, the Kd (HLA-B*57:01; [24]) was ≥ 20 µM and the Kd (HLA-A*01:01; [24]) was 0.002 µM. The Kd (HLA-B*15:17 [8]; [24]) was 0.003 µM, the Kd (HLA-A*03:01; [24]) was ≥ 20 µM and the Kd (HLA-B*15:01 [9]; [26]) was ≥ 20 µM. The Kd (HLA-B*15:09 [10]) was ≥ 20 µM, the Kd (HLA-A*26:01 [11]) was ≥ 20 µM and the Kd (HLA-A*02:06; [26]) was 0.0002 µM.

Sequence HPASAWTLYA has a Kd (HLA-B*35:01 [12]) of 0.572 µM and an IC50 (HLA-B*07:02 [13]) of 0.00615 µM.

In the case of IISTNTLGK, the Kd (HLA-A*02:01 [14]; [27]) is reported as ≥ 20 µM, the Kd (HLA-A*11:01; [27]) is reported as 0.129 µM and the Kd (HLA-B*40:01; [27]) is reported as ≥ 20 µM. For the same sequence, the Kd (HLA-B*15:01 [1]; [27]) was ≥ 20 µM, the Kd (HLA-B*48:01; [27]) was ≥ 20 µM and the Kd (HLA-B*18:01 [3]; [27]) was ≥ 20 µM. The Kd (HLA-B*27:05 [7]; [27]) was ≥ 20 µM, the Kd (HLA-B*46:01; [27]) was ≥ 20 µM and the Kd (HLA-B*07:02 [4]; [27]) was ≥ 20 µM. For the same sequence, the Kd (HLA-A*31:01; [27]) was ≥ 20 µM, the Kd (HLA-B*58:01; [27]) was ≥ 20 µM and the Kd (HLA-B*08:02; source organism: Ravn virus - Ravn, Kenya, 1987) was ≥ 20 µM. The Kd (HLA-A*68:02 [15]; [27]) was ≥ 20 µM, the Kd (HLA-B*57:01; [27]) was ≥ 20 µM and the Kd (HLA-A*01:01; [27]) was ≥ 20 µM. The Kd (HLA-B*15:17 [8]; [27]) was ≥ 20 µM, the Kd (HLA-A*03:01; [27]) was 0.249 µM and the Kd (HLA-A*26:03) was ≥ 20 µM.

Sequence REGSFRVTT has an IC50 (HLA-B*40:02) of 1.9 µM.

YHRFGLYRL was tested, and the Kd (HLA-A*02:01 [14]; source organism: Cowpox virus) was ≥ 20 µM, the Kd (HLA-B*40:01; source organism: Cowpox virus) was ≥ 20 µM and the Kd (HLA-B*15:09 [2]; source organism: Variola virus) was 2.43 µM. For the same sequence, the Kd (HLA-B*46:01; source organism: Cowpox virus) was ≥ 20 µM, the Kd (HLA-B*58:01; source organism: Cowpox virus) was ≥ 20 µM and the Kd (HLA-B*08:02; source organism: Variola virus) was ≥ 20 µM. For the same sequence, the Kd (HLA-B*39:01; source organism: Cowpox virus) was 5.05 µM, the Kd (HLA-A*68:02 [15]; source organism: Cowpox virus) was ≥ 20 µM and the Kd (HLA-B*57:01; source organism: Cowpox virus) was ≥ 20 µM. The Kd (HLA-A*26:02) was ≥ 20 µM, the Kd (HLA-A*01:01; source organism: Cowpox virus) was ≥ 20 µM and the Kd (HLA-A*26:01 [16]) was ≥ 20 µM. The Kd (HLA-B*08:01; source organism: Variola virus) was ≥ 20 µM, the Kd (HLA-A*69:01) was ≥ 20 µM and the Kd (HLA-B*15:01 [9]; source organism: Vaccinia virus Copenhagen) was ≥ 20 µM. For the same sequence, the Kd (HLA-B*18:01 [17]) was 2.66 µM, the Kd (HLA-B*27:05 [18]) was ≥ 20 µM and the Kd (HLA-B*07:02 [19]) was ≥ 20 µM. The Kd (HLA-B*35:01 [20]) was 2.7 µM and the Kd (HLA-B*15:17 [21]) was ≥ 20 µM.
